One series addresses MYB44 S145A (Arabidopsis thaliana? (Arabidopsis, …, UniProt Q9FDW1 1-305, S145A)). The series is described as follows: EMSA; no discernible difference from wild type; 10 mM Tris pH 8.0, 5 mM MgCl2, 100 mM KCl, 0.02% Triton X-100, 0.1 mg/ml BSA, 0.25% Tween, 2.5 mM DTT, 3 ng/ul poly(dIdC); 30 min room temperature; 5% PAGE in 0.5x TBE or TAE (TAE main) at 4 C. The settings on record: protein: recombinant; label: 5' Dy782 (Methods; called IRDye in Results); (only one strand printed).

Another series deals with MYB44 S145D (Arabidopsis thaliana? (Arabidopsis, …, UniProt Q9FDW1 1-305, S145D)). Described as above. To be noted: protein: recombinant; label: 5' Dy782 (Methods; called IRDye in Results); (only one strand printed).
Chain of MYB44 S145D (Arabidopsis thaliana? (Q9FDW1 whole entry S145D): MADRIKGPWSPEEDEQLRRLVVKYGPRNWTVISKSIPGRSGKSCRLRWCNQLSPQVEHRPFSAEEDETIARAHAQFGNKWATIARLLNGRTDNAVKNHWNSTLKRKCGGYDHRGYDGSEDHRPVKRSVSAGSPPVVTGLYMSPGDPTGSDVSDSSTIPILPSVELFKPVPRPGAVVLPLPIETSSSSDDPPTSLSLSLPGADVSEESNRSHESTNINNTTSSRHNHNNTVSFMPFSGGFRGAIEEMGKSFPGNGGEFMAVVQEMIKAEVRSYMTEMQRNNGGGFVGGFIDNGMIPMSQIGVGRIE

Data on one molecule can be found in PMC3578790, “Tight Interconnection and Multi-Level Control of Arabidopsis MYB44 in MAPK Cascade Signalling”.

Chain of MYB44 S145A (Arabidopsis thaliana? (Q9FDW1 whole entry S145A): as the sequence (Q9FDW1 whole entry S145D) above, with D145A counted along it

B1: MBSII (dsDNA)
DNA 1: AGCTTCAAAAGTTAGTTACG
DNA 2: CGTAACTAACTTTTGAAGCT
For B1, the binding result with MYB44 S145A and in the series with MYB44 S145D was “binds” in each case.
